The values below come from patent US20170182119A1 (Dana-Farber, published 2017).

B3: ferritin purified from horse spleen (mixture of FTH1 and FTL subunits) (other)
chain 1: TTAFPSQVRQNYHQDSEAAINRQINLELHASYVYLSMSFYFDRDDVALKNFAKYFLHQSHEEREHAEKLMKLQNQRGGRIFLQDIKKPDQDDWENGLKAMECALHLEKNVNESLLELHKLATDKNDPHLCDFLETHYLNEQVKAIKELGDHVTNLRRMGAPESGMAEYLFDKHTLGECDES
chain 2: SSQIRQNYSTEVEAAVNRLVNLYLRASYTYLSLGFYFDRDDVALEGVCHFFRELAEEKREGAERLLKMQNQRGGRALFQDLQKPSQDEWGTTLDAMKAAIVLEKSLNQALLDLHALGSAQADPHLCDFLESHFLDEEVKLIKKMGDHLTNIQRLVGSQAGLGEYLFERLTLKHD
notes: Bought from Sigma (A3641 in the MYC assays, F4503 in the GST pull-downs); detected with anti-FTH1 antibody; also called Apoferritin; apo-ferritin purified from equine spleen

Assay [1] concerns the target B3. Put plainly: anti-MYC immunoprecipitation of in vitro translated MYC-NCOA4 with horse spleen ferritin, FTH1 immunoblot.
Method: (§1) An anti-MYC antibody immunoprecipitation was performed followed by immunoblotting with the indicated antibodies.
(§2) To probe the interaction between ferritin and NCOA4, initial binding assays using MYC-tagged NCOA4 full-length and truncation constructs produced using an in vitro translation (“IVT”) system were conducted. […] Apoferritin (Sigma, A3641-100 mg) was added in a pull-down assay using anti-c-Myc Agarose Affinity Gel antibody produced in rabbit (Sigma, A7470-1 ML). Affinity purification reactions were washed thoroughly with 150 mM NaCl, 20 mM Tris (pH 7.4), and 2 mM dithiothreitol.
In assay [2] the target is B3. Nature of the assay: anti-MYC immunoprecipitation of in vitro translated MYC-NCOA4B with horse spleen ferritin, FTH1 immunoblot.
Method: as §1, §2
The next assay concerns the target T1, MYC-NCOA4 full-length (human, UniProt Q13772 1-614).
T1 construct: not shown: N-terminal MYC tag (vector pT7CFE1-NMyc)
T1 sequence: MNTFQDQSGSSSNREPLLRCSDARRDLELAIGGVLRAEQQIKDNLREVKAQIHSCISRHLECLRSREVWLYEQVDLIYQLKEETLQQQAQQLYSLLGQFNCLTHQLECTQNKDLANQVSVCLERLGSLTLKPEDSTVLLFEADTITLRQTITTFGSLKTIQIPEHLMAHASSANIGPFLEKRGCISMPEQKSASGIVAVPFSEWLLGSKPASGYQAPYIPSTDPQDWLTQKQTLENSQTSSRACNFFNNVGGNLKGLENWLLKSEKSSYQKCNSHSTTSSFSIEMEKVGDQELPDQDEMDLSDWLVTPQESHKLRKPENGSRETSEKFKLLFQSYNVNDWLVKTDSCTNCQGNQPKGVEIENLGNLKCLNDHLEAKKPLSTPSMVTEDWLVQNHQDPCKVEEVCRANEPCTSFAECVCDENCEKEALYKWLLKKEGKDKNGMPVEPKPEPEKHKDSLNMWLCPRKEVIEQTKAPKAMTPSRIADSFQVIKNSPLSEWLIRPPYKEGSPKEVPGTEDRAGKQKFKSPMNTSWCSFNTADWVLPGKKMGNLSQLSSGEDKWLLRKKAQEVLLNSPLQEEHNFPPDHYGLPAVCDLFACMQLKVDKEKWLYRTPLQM
Nature of the assay: anti-MYC immunoprecipitation of in vitro translated MYC-NCOA4 with horse spleen ferritin, immunoblot.

The target in assay [3] is T2, C-terminal MYC-NCOA4 (aa 235-614) (human, UniProt Q13772 235-614).
T2 construct: In vitro translated; also called C-terminal NCOA4; NCOA4 C-terminal fragment; not shown: N-terminal MYC tag (vector pT7CFE1-NMyc)
T2 sequence: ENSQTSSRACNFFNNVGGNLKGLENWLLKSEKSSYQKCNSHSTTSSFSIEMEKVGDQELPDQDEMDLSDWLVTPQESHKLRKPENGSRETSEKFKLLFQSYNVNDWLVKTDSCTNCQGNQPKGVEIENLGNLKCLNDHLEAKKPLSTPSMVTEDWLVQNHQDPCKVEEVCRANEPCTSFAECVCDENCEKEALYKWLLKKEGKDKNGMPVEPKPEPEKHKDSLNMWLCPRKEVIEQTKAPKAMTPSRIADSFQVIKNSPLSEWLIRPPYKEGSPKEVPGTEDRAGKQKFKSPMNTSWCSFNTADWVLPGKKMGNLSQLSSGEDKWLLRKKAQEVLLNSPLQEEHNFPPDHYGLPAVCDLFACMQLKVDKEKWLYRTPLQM
The assay is described as above.

Method for MYC-NCOA4 full-length: as §1, §2

B1: N-terminal MYC-NCOA4 (aa 1-245) (other)
chain: MNTFQDQSGSSSNREPLLRCSDARRDLELAIGGVLRAEQQIKDNLREVKAQIHSCISRHLECLRSREVWLYEQVDLIYQLKEETLQQQAQQLYSLLGQFNCLTHQLECTQNKDLANQVSVCLERLGSLTLKPEDSTVLLFEADTITLRQTITTFGSLKTIQIPEHLMAHASSANIGPFLEKRGCISMPEQKSASGIVAVPFSEWLLGSKPASGYQAPYIPSTDPQDWLTQKQTLENSQTSSRACN
notes: In vitro translated; also called N-terminal NCOA4; NCOA4 N-terminal fragment; not shown: N-terminal MYC tag (vector pT7CFE1-NMyc)
On to B1, for which, in assay [1], the binding result is listed as “no binding”.

B2: MYC-tagged NCOA4B (transcript variant, amino acids 1-238 and 555-614 of full-length NCOA4) (other)
chain: MNTFQDQSGSSSNREPLLRCSDARRDLELAIGGVLRAEQQIKDNLREVKAQIHSCISRHLECLRSREVWLYEQVDLIYQLKEETLQQQAQQLYSLLGQFNCLTHQLECTQNKDLANQVSVCLERLGSLTLKPEDSTVLLFEADTITLRQTITTFGSLKTIQIPEHLMAHASSANIGPFLEKRGCISMPEQKSASGIVAVPFSEWLLGSKPASGYQAPYIPSTDPQDWLTQKQTLENSQGEDKWLLRKKAQEVLLNSPLQEEHNFPPDHYGLPAVCDLFACMQLKVDKEKWLYRTPLQM
notes: in vitro translated; also called NCOAB; not shown: N-terminal MYC tag (vector pT7CFE1-NMyc)
For B2, in assay [2], the binding result was “no binding”.
With B3, the binding result (with MYC-NCOA4 full-length; in assay [3]) was “binds” each time.
